According to PMC7132340 (EMBO Reports, 2020):

target: T1, WT human CXCL12α (human, UniProt P48061-2 22-89, 15N-labelled in one NMR orientation; FITC in flow cytometry (Fig 6H)); assay: far-Western, overlay or dot blot; solid-phase immunoassay: 100 ng of Gal-3 or Gal-3 CRD variants on nitrocellulose, 120 nM CXCL12 overnight, SA-HRP, densitometry (Appendix Fig S7); conditions: both partners purified
T1 construct: CXCL12 alpha, human, codon-optimised cDNA, released from the thioredoxin-His fusion by enterokinase; also called CXCL12 FITC; source: E. coli BL21(DE3), from inclusion bodies, purified (HisTrap, Heparin HP, enterokinase cleavage, Mono S); not shown: thioredoxin, N-terminal, cleaved; His tag, N-terminal, cleaved

binding result | Binder
binds | Gal‐3 CRD mutant N222A (domain or fragment, UniProt P17931 108-250, looked up, The limits are those printed for the wild-type CRD) GAPAGPLIVPYNLPLPGGVVPRMLITILGTVKPNANRIALDFQRGNDVAFHFNPRFNENNRRVIVCNTKLDNNWGREERQSVFPFESGKPFKIQVLVEPDHFKVAVNDAHLLQYAHRVKKLNEISKLGISGDIDLTSASYTMI
binds | Gal‐3 CRD mutant N160A (domain or fragment, UniProt P17931 108-250, looked up, The limits are those printed for the wild-type CRD) GAPAGPLIVPYNLPLPGGVVPRMLITILGTVKPNANRIALDFQRGNDVAFHFAPRFNENNRRVIVCNTKLDNNWGREERQSVFPFESGKPFKIQVLVEPDHFKVAVNDAHLLQYNHRVKKLNEISKLGISGDIDLTSASYTMI
binds | Gal‐3 CRD mutant E185A (domain or fragment, UniProt P17931 108-250, looked up, The limits are those printed for the wild-type CRD) GAPAGPLIVPYNLPLPGGVVPRMLITILGTVKPNANRIALDFQRGNDVAFHFNPRFNENNRRVIVCNTKLDNNWGREARQSVFPFESGKPFKIQVLVEPDHFKVAVNDAHLLQYNHRVKKLNEISKLGISGDIDLTSASYTMI

target: T1, WT human CXCL12α; assay: NMR titration; 1H-15N HSQC, 15N-labelled protein with unlabelled partner (10 μM 15N-CXCL12 with 330 μM Gal-3 CRD; 30 μM 15N-Gal-3 CRD with 500 μM CXCL12; 30 μM 15N-CXCL12 with 500 μM Gal-3 CRD mutants), 20 mM sodium acetate pH 4.5, 4.5 mM lactose, 37°C; conditions: both partners purified

CXCL12 sequence-averaged Δδ [ppm] | Binder
0.0073 | Gal‐3 CRD mutant Q220E (domain or fragment, UniProt P17931 108-250, looked up, The limits are those printed for the wild-type CRD) GAPAGPLIVPYNLPLPGGVVPRMLITILGTVKPNANRIALDFQRGNDVAFHFNPRFNENNRRVIVCNTKLDNNWGREERQSVFPFESGKPFKIQVLVEPDHFKVAVNDAHLLEYNHRVKKLNEISKLGISGDIDLTSASYTMI
0.0036 | Gal‐3 CRD mutant Q220K (domain or fragment, UniProt P17931 108-250, looked up, The limits are those printed for the wild-type CRD) GAPAGPLIVPYNLPLPGGVVPRMLITILGTVKPNANRIALDFQRGNDVAFHFNPRFNENNRRVIVCNTKLDNNWGREERQSVFPFESGKPFKIQVLVEPDHFKVAVNDAHLLKYNHRVKKLNEISKLGISGDIDLTSASYTMI
0.0048 | Gal‐3 CRD mutant H217A (domain or fragment, UniProt P17931 108-250, looked up, The limits are those printed for the wild-type CRD) GAPAGPLIVPYNLPLPGGVVPRMLITILGTVKPNANRIALDFQRGNDVAFHFNPRFNENNRRVIVCNTKLDNNWGREERQSVFPFESGKPFKIQVLVEPDHFKVAVNDAALLQYNHRVKKLNEISKLGISGDIDLTSASYTMI
